Assay results as given in patent US20080267971A1 (published 2008).

T1: human Angiopoietin-1 (human, UniProt Q15389 20-498, limits assumed)
T1 construct: Bought recombinant protein (R&D Systems 293-AN-025/CF) or supernatant of transfected 293F cells; also called Ang-1; recombinant Ang-1
T1 sequence: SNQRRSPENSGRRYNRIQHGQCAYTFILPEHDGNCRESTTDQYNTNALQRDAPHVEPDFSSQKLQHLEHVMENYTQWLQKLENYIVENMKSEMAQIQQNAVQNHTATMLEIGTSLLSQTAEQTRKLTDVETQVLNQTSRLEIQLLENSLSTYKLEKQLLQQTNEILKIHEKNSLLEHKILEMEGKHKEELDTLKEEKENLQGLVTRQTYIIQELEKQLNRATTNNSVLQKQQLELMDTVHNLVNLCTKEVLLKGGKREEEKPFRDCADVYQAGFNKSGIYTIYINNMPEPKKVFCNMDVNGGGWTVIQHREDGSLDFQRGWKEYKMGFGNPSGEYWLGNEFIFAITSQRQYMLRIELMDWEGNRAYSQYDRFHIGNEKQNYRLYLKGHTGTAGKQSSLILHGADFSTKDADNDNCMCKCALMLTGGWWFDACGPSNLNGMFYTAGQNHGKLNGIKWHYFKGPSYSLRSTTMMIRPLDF

B1: recombinant human Tie2/Fc fusion protein (Fc fusion, UniProt Q02763 23-745, looked up, not shown: a dimerising Fc or GST)
chain: AMDLILINSLPLVSDAETSLTCIASGWRPHEPITIGRDFEALMNQHQDPLEVTQDVTREWAKKVVWKREKASKINGAYFCEGRVRGEAIRIRTMKMRQQASFLPATLTMTVDKGDNVNISFKKVLIKEEDAVIYKNGSFIHSVPRHEVPDILEVHLPHAQPQDAGVYSARYIGGNLFTSAFTRLIVRRCEAQKWGPECNHLCTACMNNGVCHEDTGECICPPGFMGRTCEKACELHTFGRTCKERCSGQEGCKSYVFCLPDPYGCSCATGWKGLQCNEACHPGFYGPDCKLRCSCNNGEMCDRFQGCLCSPGWQGLQCEREGIQRMTPKIVDLPDHIEVNSGKFNPICKASGWPLPTNEEMTLVKPDGTVLHPKDFNHTDHFSVAIFTIHRILPPDSGVWVCSVNTVAGMVEKPFNISVKVLPKPLNAPNVIDTGHNFAVINISSEPYFGDGPIKSKKLLYKPVNHYEAWQHIQVTNEIVTLNYLEPRTEYELCVQLVRRGEGGEGHPGPVRRFTTASIGLPPPRGLNLLPKSQTTLNLTWQPIFPSSEDDFYVEVERRSVQKSDQQNIKVPGNLTSVLLNNLHPREQYVVRARVNTKAQGEWSEDLTAWTLSDILPPQPENIKISNITHSSAVISWTILDGYSISSITIRYKVQGKNEDQHVDVKIKNATITQYQLKGLEPETAYQVDIFAENNIGSSNPAFSHELVTLPESQAPADLGGGK
notes: Bought fusion protein; also called hTie2/Fc; soluble Tie2/Fc
B2: human Angiopoietin-2 (ligand)
chain: YNNFRKSMDSIGKKQYQVQHGSCSYTFLLPEMDNCRSSSSPYVSNAVQRDAPLEYDDSVQRLQVLENIMENNTQWLMKLENYIQDNMKKEMVEIQQNAVQNQTAVMIEIGTNLLNQTAEQTRKLTDVEAQVLNQTTRLELQLLEHSLSTNKLEKQILDQTSEINKLQDKNSFLEKKVLAMEDKHIIQLQSIKEEKDQLQVLVSKQNSIIEELEKKIVTATVNNSVLQKQQHDLMETVNNLLTMMSTSNSAKDPTVAKEEQISFRDCAEVFKSGHTTNGIYTLTFPNSTEEIKAYCDMEAGGGGWTIIQRREDGSVDFQRTWKEYKVGFGNPSGEYWLGNEFVSQLTNQQRYVLKIHLKDWEGNEAYSLYEHFYLSSEELNYRIHLKGLTGTAGKISSISQPGNDFSTKDGDNDKCICKCSQMLTGGWWFDACGPSNLNGMYYPQRQNTNKFNGIKWYYWKGSGYSLKATTMMIRPADF
notes: Mostly bought recombinant protein (R&D Systems 623-AM/CF, 623-AN; biotinylated BT623) or supernatant of transfected 293F cells; also called Ang-2; rhAng-2

Key:
[1] = target: T1, human Angiopoietin-1; test: FACS: inhibition of Ang-1 binding to HEK293F/Tie2 cells
Experimental: (§1) Cell suspension of 4 million cells/mL in FACS Buffer were prepared, and then aliquoted to a 96-well polypropylene plate with 50 ul per well. […] Cells were washed by centrifuging the plate at 1,200 rpm for 5 minutes, removing the supernatant by aspirating, and resuspending the cells with 200 ul per well of FACS Buffer. Washing procedures were repeated twice. The cells were then suspended with 100 ul of mouse Anti-6×-Histidine antibody diluted to 2 ug/ml in FACS Buffer, and incubated at room temperature for 30 minutes. After washing, the cells were suspended in 100 ul of PE-conjugated goat anti-mouse-IgG, which was diluted 1:100 in FACS Buffer, for incubation at room temperature for 30 minutes. The volume of the samples were brought to 300 ul with FACS Buffer, and measured with FACS Calibur.

[2] = target: B2; test: FACS: inhibition of Ang-2 binding to HEK293F/Tie2 cells
Experimental: as §1

[3] = target: B1; test: FACS competition: binding of His-tagged recombinant human Ang-2 to Tie2 on HEK293F/Tie2 transfectants, soluble Tie2/Fc titrated, n = 3
Experimental: as §1

Q: For B1, which EC50 [1] is on record?
A: The EC50 was 18.7 nM.

Q: What about the EC50 [2] of the same binder?
A: Its EC50 is 25.7 nM.

Q: Does B2 bind [3]?
A: Result: binds
